B1: recombinant ITIH4 (ITIH4 WT) (natural protein, human, UniProt Q14624 29-930, looked up)
chain: EKNGIDIYSLTVDSRVSSRFAHTVVTSRVVNRANTVQEATFQMELPKKAFITNFSMIIDGMTYPGIIKEKAEAQAQYSAAVAKGKSAGLVKATGRNMEQFQVSVSVAPNAKITFELVYEELLKRRLGVYELLLKVRPQQLVKHLQMDIHIFEPQGISFLETESTFMTNQLVDALTTWQNKTKAHIRFKPTLSQQQKSPEQQETVLDGNLIIRYDVDRAISGGSIQIENGYFVHYFAPEGLTTMPKNVVFVIDKSGSMSGRKIQQTREALIKILDDLSPRDQFNLIVFSTEATQWRPSLVPASAENVNKARSFAAGIQALGGTNINDAMLMAVQLLDSSNQEERLPEGSVSLIILLTDGDPTVGETNPRSIQNNVREAVSGRYSLFCLGFGFDVSYAFLEKLALDNGGLARRIHEDSDSALQLQDFYQEVANPLLTAVTFEYPSNAVEEVTQNNFRLLFKGSEMVVAGKLQDRGPDVLTATVSGKLPTQNITFQTESSVAEQEAEFQSPKYIFHNFMERLWAYLTIQQLLEQTVSASDADQQALRNQALNLSLAYSFVTPLTSMVVTKPDDQEQSQVAEKPMEGESRNRNVHSGSTFFKYYLQGAKIPKPEASFSPRRGWNRQAGAAGSRMNFRPGVLSSRQLGLPGPPDVPDHAAYHPFRRLAILPASAPPATSNPDPAVSRVMNMKIEETTMTTQTPAPIQAPSAILPLPGQSVERLCVDPRHRQGPVNLLSDPEQGVEVTGQYEREKAGFSWIEVTFKNPLVWVHASPEHVVVTRNRRSSAYKWKETLFSVMPGLKMTMDKTGLLLLSDPDKVTIGLLFWDGRGEGLRLLLRDTDRFSSHVGGTLGQFYQEVLWGSPAASDDGRRTLRVQGNDHSATRERRLDYQEGPPGVEISCWSVEL

Legend:
[1] = biological target: plasma kallikrein (human)
SAXS = biological target: the molecule itself; assay: SAXS

| Molecule | IC50 of ITIH4 on cleavage of HMWK by plasma kallikrein in Ca2+/Mg2+, SDS-PAGE [1] | stoichiometry N (SAXS) |
| --- | --- | --- |
| recombinant ITIH4 (ITIH4 WT) (from UniProt Q14624 29-930) (natural protein) | 90 nM | – |
| B1 | – | 2 |
